# Read-outs that look alike come from different tables or passages of the source.
# Columns and labels:
# [1] = target: T1, EGFR on the surface of human tumour cells (A431, H292) (human, UniProt P00533 25-1210); test: cell-based or functional assay
# [2] = target: T1, EGFR on the surface of human tumour …; test: cell-based or functional assay; remark: listed apart in the source
Binder,"% inhibition of EGFR phosphorylation at 100 nM binder, cell-based assay [1] [%]","% inhibition of EGFR phosphorylation at 100 nM binder, cell-based assay [2] [%]"
E38 (designed binder) 10Fn3 domain: MGVSDVPRDLEVVAATPTSLLISWNARTDAYQYYRITYGETGGNSPVQEFTVPRDLETATISGLKPGVDYTITVYAVTDYKPHADGPHTYQESPISINYRTEIDKPSQ,89.8,
E45 (designed binder) 10Fn3 domain: MGVSDVPRDLEVVAATPTSLLISWQVPRPMYQYYRITYGEKGGNSPVQEFTVPHDLRTATISGLKPGVDYTITVYAVTDYYDPTSNLYNYNQTPISINYRTEIDKPSQ,80.4,
E40 (designed binder) 10Fn3 domain: MGVSDVPRDLEVVAATPTSLLISWVLGRRVYQYYRITYGETGGNSPVQEFTVPGAVYTATISGLKPGVDYTITVYAVTDYFNPATHEYQYELTPISINYRTEIDKPSQ,89.6,
E64 (designed binder) 10Fn3 domain: MGVSDVPRDLEVVAATPTSLLISWDSGNGTYQYYRITYGETGGNSPVQEFTVPYRVYTATISGLKPGVDYTITVYAVTDYYNPATHEYTYELRPISINYRTEIDKPSQ,,78.2
E61 (designed binder) 10Fn3 domain: MGVSDVPRDLEVVAATPTSLLISWDASQGNYQYYRITYGETGGNSPVQEFTVPGAVKTATISGLKPGVDYTITVYAVTDFFNPATHEYIYHTTPISINYRTEIDKPSQ,,79.8
E60 (designed binder) 10Fn3 domain: MGVSDVPRDLEVVAATPTSLLISWLQPLWRYQYYRITYGETGGNSPVQEFTVPGGLDTATISGLKPGVDYTITVYAVTDYKPHVDGPHAYHEYPISINYRTEIDKPSQ,,100
E37 (designed binder) 10Fn3 domain: MGVSDVPRDLEVVAATPTSLLISWERTSTHYQYYRITYGETGGNSPVQEFTVPGRVYTATISGLKPGVDYTITVYAVTDYYNPATHEYKYHQTPISINYRTEIDKPSQ,80.8,
E33 (designed binder) 10Fn3 domain: MGVSDVPRDLEVVAATPTSLLISWASRKEVYQYYRITYGETGGNSPVQEFTVPGWLNTATISGLKPGVDYTITVYAVTDYMHVEYAEYPISINYRTEIDKPSQ,75.8,
E32 (designed binder) 10Fn3 domain: MGVSDVPRDLEVVAATPTSLLISWVSLVGFYQYYRITYGETGGNSPVQEFTVPGGVHTATISGLKPGVDYTITVYAVTDYKPHADGPHTYHESPISINYRTEIDKPSQ,86,
E43 (designed binder) 10Fn3 domain: MGVSDVPRDLEVVAATPTSLLISWSGGFMRYQYYRITYGETGGNSPVQEFTVPGQVYTATISGLKPGVDYTITVYAVTDYKPHADGPHTYHESPISINYRTEIDKPSQ,75,
E34 (designed binder) 10Fn3 domain: MGVSDVPRDLEVVAATPTSLLISWLAPFWRYQYYRITYGETGGNSPVQEFTVPGGVRTATISGLKPGVDYTITVYAVTDYKPHADGPHTYHESPISINYRTEIDKPSQ,80.4,
E36 (designed binder) 10Fn3 domain: MGVSDVPRDLEVVAATPTSLLISWESGSRTYQYYRITYGETGGNSPVQEFTVPGGVHTATISGLKTGVDYTITVYAVTDYKPHADGPHTYHEYPISINYRTEIDKPSQ,81.3,
E39 (designed binder) 10Fn3 domain: MGVSDVPRDLEVVAATPTSLLISWQVSAFRYQYYRITYGETGGNSPVQEFTVPGMVSTATISGLKPGVDYTITVYAVTDYKPHADGPHTYSEYPISINYRTEIDKPSQ,76.7,
E59 (designed binder) 10Fn3 domain: MGVSDVPRDLEVVAATPTSLLISWRARRLQYQYYRITYGETGGNSPVQEFTVPGMVTTATISGLKPGVDYTITVYAVTDFYNPATMEYTYQRTPISINYRTEIDKPSQ,,76.3
E63 (designed binder) 10Fn3 domain: MGVSDVPRDLEVVAATPTSLLISWDTSGASYQYYRITYGETGGNSPVQEFTVPYSVYTATISGLKPGVDYTITVYAVTDYYDPDSHYYNYNMVPISINYRTEIDKPSQ,,76.2
E42 (designed binder) 10Fn3 domain: MGVSDVPRDLEVVAATPTSLLISWVVPNWMYQYYRITYGETGGNSPVQEFTVPGMLETATISGLKPGVDYTITVYAVTDYYNPTTYEYTYFTYPISINYRTEIDKPSQ,77.3,
E35 (designed binder) 10Fn3 domain: MGVSDVPRDLEVVAATPTSLLISWTPPGHQHQYYRITYGETGGNSPVQEFTVPGQVTTATISGLKPGVDYTITVYAVTDYYNPATHYYTYYTTPISINYRTEIDKPSQ,90.2,
E41 (designed binder) 10Fn3 domain: MGVSDVPRDLEVVAATPTSLLISWTPPNSGHNYYRITYGETGGNSPVQEFTVPHDLTTATISGLKPGVDYTITVYAVTDYYNPNTYEYTYQFTPISINYRTEIDKPSQ,75.2,
E66 (designed binder) 10Fn3 domain: MGVSDVPRDLEVVAATPTSLLISWKSYGSAYQYYRITYGETGGNSPVQEFTVPGDLQTATISGLKPGVDYTITVYAITDYYNPDTHEYKYHVSPISINYRTEIDKPSQ,,75
E44 (designed binder) 10Fn3 domain: MGVSDVPRDLEVVAATPTSLLISWDSEGPSYQYYRITYGETGGNSPVQEFTVPYAVYTATISGLKPGVDYTITVYAVTDYYNPRTHELFFQQYPISINYRTEIDKPSQ,83.3,
E67 (designed binder) 10Fn3 domain: MGVSDVPRDLEVVAATPTSLLISWSSVMGLYQYYRITYGETGGNSPVQEFTVPYDVYTATISGLKPGVDYTITVYAVTDYYNPSTYEYKYNTTPISINYRTEIDKPSQ,,75.3
E62 (designed binder) 10Fn3 domain: MGVSDVPRDLEVVAATPTSLLISWCLDGQLYQYYRITYGETGGNSPVQEFTVPGSIVTATISGLKPGVDYTITVYAVTDWYNLATHEYNYRVTPISINYRTEIDKPSQ,,78.9
E65 (designed binder) 10Fn3 domain: MGVSDVPRDLEVVATTPTSLLISWRPTSQVYQYYRITYGETGGNSPVQEFTVPYNVYTATISGLKPGVDYTITVYAVTDFFNYATHEYIYHTIPISINYRTEIDKPSQ,,80.7
